Target: T1, acyl ghrelin (active hormone) in mouse blood, Q9EQX0
T1 chain: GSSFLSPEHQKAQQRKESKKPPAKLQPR

B1: native mouse BChE (wild-type mouse butyrylcholinesterase), expressed in mice from an AAV-8 vector (protein)
chain: EEDFIITTKTGRVRGLSMPVLGGTVTAFLGIPYAQPPLGSLRFKKPQPLNKWPDIHNATQYANSCYQNIDQAFPGFQGSEMWNPNTNLSEDCLYLNVWIPVPKPKNATVMVWIYGGGFQTGTSSLPVYDGKFLARVERVIVVSMNYRVGALGFLAFPGNPDAPGNMGLFDQQLALQWVQRNIAAFGGNPKSITIFGESAGAASVSLHLLCPQSYPLFTRAILESGSSNAPWAVKHPEEARNRTLTLAKFTGCSKENEMEMIKCLRSKDPQEILRNERFVLPSDSILSINFGPTVDGDFLTDMPHTLLQLGKVKKAQILVGVNKDEGTAFLVYGAPGFSKDNDSLITRKEFQEGLNMYFPGVSRLGKEAVLFYYVDWLGEQSPEVYRDALDDVIGDYNIICPALEFTKKFAELENNAFFYFFEHRSSKLPWPEWMGVMHGYEIEFVFGLPLGRRVNYTRAEEIFSRSIMKTWANFAKYGHPNGTQGNSTMWPVFTSTEQKYLTLNTEKSKIYSKLRAPQCQFWRLFFPKVLEMTGDIDETEQEWKAGFHRWSNYMMDWQNQFNDYTSKKESCTAL
- ratio of desacyl ghrelin (inactive peptide) over the active hormone in mouse blood, ghrelin ELISA, after AAV-BChE gene transfer (HCT116 colon cancer model): 2-fold rise
- ratio of desacyl ghrelin (inactive peptide) over the active hormone in mouse blood, ghrelin ELISA, after AAV-BChE gene transfer (triple negative PDX model): 2-fold rise

Reference: patent publication US20190255154
